Data as given in paper PMC11387744 (Communications Biology, 2024).

These binders were tested against T1, KDM2B^F-box-LRRs/SKP1 dimer (UniProt Q8NHM5 1059-1336; P63208 2-163) (assay: ITC).
T1 sequence (Q8NHM5 1059-1336, chain 1 of 2): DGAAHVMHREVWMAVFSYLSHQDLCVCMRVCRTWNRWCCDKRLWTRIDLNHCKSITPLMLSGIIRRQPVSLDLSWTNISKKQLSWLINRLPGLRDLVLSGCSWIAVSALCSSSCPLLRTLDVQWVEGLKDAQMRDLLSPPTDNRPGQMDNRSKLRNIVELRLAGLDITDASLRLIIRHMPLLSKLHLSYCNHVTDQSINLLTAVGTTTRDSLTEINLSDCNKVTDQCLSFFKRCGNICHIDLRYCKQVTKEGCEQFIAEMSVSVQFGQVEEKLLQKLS
T1 sequence (P63208 2-163, chain 2 of 2): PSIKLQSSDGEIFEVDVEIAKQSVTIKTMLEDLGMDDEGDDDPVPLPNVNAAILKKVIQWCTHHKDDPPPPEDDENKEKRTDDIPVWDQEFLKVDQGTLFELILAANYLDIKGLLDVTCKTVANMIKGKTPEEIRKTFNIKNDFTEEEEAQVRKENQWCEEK

Binder | Kd [nM]
BCOR^N1612/PCGF1^RAWUL dimer (complex) chain 1: SGYDVLANPPGPEDQDDDDDAYSDVFEFEFSETPLLPCYNIQVSVAQGPRNWLLLSDVLKKLKMSSRIFRCNFPNVEIVTIAEAEFYRQVSASLLFSCSKDLEAFNPESKELLDLVEFTNEIQTLLGSSVEWLHPSDLASDNYW chain 2: LPFSSFDHSKAHYYRYDEQLNLCLERLSSGKDKNKSVLQNKYVRCSVRAEVRHLRRVLCHRLMLNPQHVQLLFDNEVLPDHMTMKQIWLSRWFGKPSPLLLQYSVK | 850
BCOR^N1624/PCGF1^RAWUL dimer (complex) chain 1: EDQDDDDDAYSDVFEFEFSETPLLPCYNIQVSVAQGPRNWLLLSDVLKKLKMSSRIFRCNFPNVEIVTIAEAEFYRQVSASLLFSCSKDLEAFNPESKELLDLVEFTNEIQTLLGSSVEWLHPSDLASDNYW chain 2: LPFSSFDHSKAHYYRYDEQLNLCLERLSSGKDKNKSVLQNKYVRCSVRAEVRHLRRVLCHRLMLNPQHVQLLFDNEVLPDHMTMKQIWLSRWFGKPSPLLLQYSVK | 5930

The remaining lines, values ahead:

Kd [nM] | Binder
270 | BCOR^N1607/PCGF1^RAWUL dimer (complex) chain 1: EPDDESGYDVLANPPGPEDQDDDDDAYSDVFEFEFSETPLLPCYNIQVSVAQGPRNWLLLSDVLKKLKMSSRIFRCNFPNVEIVTIAEAEFYRQVSASLLFSCSKDLEAFNPESKELLDLVEFTNEIQTLLGSSVEWLHPSDLASDNYW chain 2: LPFSSFDHSKAHYYRYDEQLNLCLERLSSGKDKNKSVLQNKYVRCSVRAEVRHLRRVLCHRLMLNPQHVQLLFDNEVLPDHMTMKQIWLSRWFGKPSPLLLQYSVK
250 | BCOR^N1594/PCGF1^RAWUL dimer (complex) chain 1: ASGTWDFYGSSVCEPDDESGYDVLANPPGPEDQDDDDDAYSDVFEFEFSETPLLPCYNIQVSVAQGPRNWLLLSDVLKKLKMSSRIFRCNFPNVEIVTIAEAEFYRQVSASLLFSCSKDLEAFNPESKELLDLVEFTNEIQTLLGSSVEWLHPSDLASDNYW chain 2: LPFSSFDHSKAHYYRYDEQLNLCLERLSSGKDKNKSVLQNKYVRCSVRAEVRHLRRVLCHRLMLNPQHVQLLFDNEVLPDHMTMKQIWLSRWFGKPSPLLLQYSVK
240 | BCOR^N1591/PCGF1^RAWUL dimer (complex) chain 1: DDDASGTWDFYGSSVCEPDDESGYDVLANPPGPEDQDDDDDAYSDVFEFEFSETPLLPCYNIQVSVAQGPRNWLLLSDVLKKLKMSSRIFRCNFPNVEIVTIAEAEFYRQVSASLLFSCSKDLEAFNPESKELLDLVEFTNEIQTLLGSSVEWLHPSDLASDNYW chain 2: LPFSSFDHSKAHYYRYDEQLNLCLERLSSGKDKNKSVLQNKYVRCSVRAEVRHLRRVLCHRLMLNPQHVQLLFDNEVLPDHMTMKQIWLSRWFGKPSPLLLQYSVK

Target: T1, KDM2B^F-box-LRRs/SKP1 dimer
Assay: ITC
Remark: another data set of the same source

Binder | Kd [nM]
BCOR^ANK-linker (residues 1461-1635) (domain or fragment, UniProt Q6W2J9 1461-1635, looked up) NAGETLLQRAARLGYEEVVLYCLENKICDVNHRDNAGYCALHEACARGWLNIVRHLLEYGADVNCSAQDGTRPLHDAVENDHLEIVRLLLSYGADPTLATYSGRTIMKMTHSELMEKFLTDYLNDLQGRNDDDASGTWDFYGSSVCEPDDESGYDVLANPPGPEDQDDDDDAYSD | 6350
